Source: PMC5699081 (Proceedings of the National Academy of Sciences of the …, 2017)
Numbering of substitutions follows the chain as printed.

Molecular target: T1, GST-MPSR1 (Misfolded Protein Sensing RING E3 ligase 1) (Arabidopsis thaliana, UniProt Q9LQX2 1-204)
T1 sequence (looked up): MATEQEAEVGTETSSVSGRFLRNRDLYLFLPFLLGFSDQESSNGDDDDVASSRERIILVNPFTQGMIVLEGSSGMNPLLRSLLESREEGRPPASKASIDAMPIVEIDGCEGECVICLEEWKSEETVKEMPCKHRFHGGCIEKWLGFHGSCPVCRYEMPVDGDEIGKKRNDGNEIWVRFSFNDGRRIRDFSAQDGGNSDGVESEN
Experiment: pull-down

B1: His-MPSR1-DN (enzyme, Arabidopsis thaliana, UniProt Q9LQX2 1-204, looked up)
chain: T1 sequence (looked up) with C153S
  binding result: binds
